Data reported in the DeepSol protein solubility set.

Assay: soluble on expression in E. coli; label from the status in PepcDB or PDB records

Sequence | soluble on expression in E. coli
SPNATPRRPLQELRRAELVEIIVETEAQTGVSGINVAGGGKEGIFVRELREDSPAARSLSLQEGDQLLSARVFFENFKYEDALRLLQCAEPYKVSFCLKRTVPTGDLALRPGTVSGYEIKGPRAKVAKLNIQSLSPVKKKKMVPGALGVPADLAPVDVEFSFPKFSRLRRGLKAEAVKGPVPAAPARRRLQLPRLRVREVAEEAQAARLAAAAPPPRKAKVEAEVAAGARFTAPQVELVGPRLPGAEVGVPQVSAPKAAPSAEAAGGFALHLPTLGLGAPAPPAVEAPAVGIQVPQVELPALPSLPTLPTLPCLETREGAVSVVVPTLDVAAPTVGVDLALPGAEVEARGEAPEVALKMPRLSFPRFGARAKEVAEAKVAKVSPEARVKGPRLRMPTFGLSLLEPRPAAPEVVESKLKLPTIKMPSLGIGVSGPEVKVPKGPEVKLPKAPEVKLPKVPEAALPEVRLPEVELPKVSEMKLPKVPEMAVPEVRLPEVELPKVSEMKLPKVPEMAVPEVRLPEVQLLKVSEMKLPKVPEMAVPEVRLPEVQLPKVSEMKLPEVSEVAVPEVRLPEVQLPKVPEMKVPEMKLPKVPEMKLPEMKLPEVQLPKVPEMAVPDVHLPEVQLPKVPEMKLPEMKLPEVKLPKVPEMAVPDVHLPEVQLPKVPEMKLPKMPEMAVPEVRLPEVQLPKVSEMKLPKVPEMAVPDVHLPEVQLPKVCEMKVPDMKLPEIKLPKVPEMAVPDVHLPEVQLPKVSEIRLPEMQVPKVPDVHLPKAPEVKLPRAPEVQLKATKAEQAEGMEFGFKMPKMTMPKLGRAESPSRGKPGEAGAEVSGKLVTLPCLQPEVDGEAHVGVPSLTLPSVELDLPGALGLQGQVPAAKMGKGERAEGPEVAAGVREVGFRVPSVEIVTPQLPAVEIEEGRLEMIETKVKPSSKFSLPKFGLSGPKVAKAEAEGAGRATKLKVSKFAISLPKARVGAEAEAKGAGEAGLLPALDLSIPQLSLDAHLPSGKVEVAGADLKFKGPRFALPKFGVRGRDTEAAELVPGVAELEGKGWGWDGRVKMPKLKVSTAGQVVTEGHDAGLRMPPLGISLPQVELTGFGEAGTPGQQAQSTVPSAEGTAGYRVQVPQVTLSLPGAQVAGGELLVGEGVFKMPTVTVPQLELDVGLSREAQAGEAATGEGGLRLKLPTLGARARVGGEGAEEQPPGAERTFCLSLPDVELSPSGGNHAEYQVAEGEGEAGHKLKVRLPRFGLVRAKEGAEEGEKAKSPKLRLPRVGFSQSEMVTGEGSPSPEEEEEEEEEGSGEGASGRRGRVRVRLPRVGLAAPSKASRGQEGDAAPKSPVREKSPKFRFPRVSLSPKARSGSGDQEEGGLRVRLPSVGFSETGAPGPARMEGAQAAAV | soluble
MRVHVPAQDAREAVRQAAATTGDADVLSETDRRLLATAHELDGTLVSDDYAMQNVAAELAVTVESISQDGITERRDWRLQCQGCGREFDDTDHDRCPVCGSPLERKNPSLEHHHHHH | not soluble
MGSDKIHHHHHHMQEIHTIMKHMDALIADPSAAAFKATLPFAELLEKLHNKKALFDAALAKSAERADAGRIIGKTSHIDALAYLLDISKSEAFRRTKRAEEHYGNPSPEPSSEELAKETPEEKLAREEKEKQDLAEQAEANRIAREHGISAEKQDTIRYELEKLNDNTSLSRASLRKLAMQEATSRTPEDLRNWTRNKVIRINPTAKDPLAAVKKRSLSIGRQDHDGGAKASLYLDAKGLALLKSLMSKAKPGHLLEDSLAEDKRTKPQRQYDAFADILHRAHSDLLPARSGVGTILVSLSAKDVTNLKASGPDHRYPTSTGIKLTPLEILRLGAAKYDFVTVLDSESGRPLHLARTQRTASLYQRLALFASELVCTREGCDSPFEDNEIHHIRSWLDGGPTDIENITNICPHDHGNNNDQRDGKDNMGHMNIDPTTGRVGYQPADRRKPMRFNNTAAAAESGGAQART | not soluble
MAHHHHHHMLRIYDPKETVAFYEKNFGMINIHTYHFDEYNFSLYFLITPPYDEEERKKIPPPNTIESEQYLWNLKTVCLELTHNHNSTEKLSNGNNDNDRGFGHIAFNCQDVTQFCDYLFKEKKVNFHKLPHETKMKSIGFALDPNDYWIEIVKRSSEVKWKDKEGIANFSQTMIRVKNPEKSLYFYLHILGMKLVHIKHASDFSLYFLKSPYVEGNKGGDISTKEKPEGEQNLPPYNFEELKKAYQSDEDYENLKTSWEPVLELTHNHGTENDDQFAYHNGNTEPRGFGHIGFLVDDLANYCQELEKLGIPFKKKIHEGQMNNIAFVYDPDNYLVELIQRGTTFGRN | not soluble
MGSDKIHHHHHHMSVMFDPDTAIYPFPPKPTPLSIDEKAYYREKIKRLLKERNAVMVAHYYTDPEIQQLAEETGGCISDSLEMARFGAKHPASTLLVAGVRFMGETAKILSPEKTILMPTLQAECSLDLGCPVEEFNAFCDAHPDRTVVVYANTSAAVKARADWVVTSSIAVELIDHLDSLGEKIIWAPDKHLGRYVQKQTGGDILCWQGACIVHDEFKTQALTRLQEEYPDAAILVHPESPQAIVDMADAVGSTSQLIAAAKTLPHQRLIVATDRGIFYKMQQAVPDKELLEAPTAGEGATCRSCAHCPWMAMNGLQAIAEALEQEGSNHEVHVDERLRERALVPLNRMLDFAATLRG | not soluble
MSRFNPSPVSLSVTLGLMFSASAFAQDATKTDETMVVTAAGYAQVIQNAPASISVISREDLESRYYRDVTDALKSVPGVTVTGGGDTTDISIRGMGSNYTLILVDGKRQTSRQTRPNSDGPGIEQGWLPPLQAIERIEVIRGPMSTLYGSDAIGGVINIITRKDQQQWSGNVQLSTVVQENRASGDEQSANFFVTGPLSDALSLQVYGQTTQRDEDEIEHGYGDKSLRSLTSKLNYQLNPDHQLQLEAGVSAQDRENNVGKSAQSSGCRGTCSNTDNQYRRNHVAVSHQGDWQDVGQSDTYLQYEENTNKSREMSIDNTVFKSTLVAPIGEHMLSFGVEGKHESLEDKTSNKISSRTHISNTQWAGFIEDEWALAEQFRLTFGGRLDHDKNYGSHFSPRVYGVWNLDPLWTVKGGVSTGFRAPQLREVTPDWGQVSGGGNIYGNPDLKPETSINKELSLMYSTGSGLAASLTAFHNDFKDKITRVACPANICTAGPNQWGAAPTYRVNIDEAETYGAEATLSLPITESVELSSSYTYTHSEQKSGNFAGRPLLQLPKHLFNANLSWQTTDRLNSWANLNYRGKEMQPEGGASNDDFIAPSYTFIDTGVTYALTDTATIKAAVYNLFDQEVNYAEYGYVEDGRRYWLGLDIAF | not soluble
MGSDKIHHHHHHMLKPDRLRALAEALTRQNVMRLRDAAGLLGVSEMTVRRDIAGSPERFTYLGGYIVSATDVPNNAGYSLEEEKDHFAQAKAEASAVAAGLIGNNETLFIDCGTTLTTLARLIPLERHVTVVCYSLNVAEILRRKPNVRMILLGGVYVPSSDSFAGEESLEMLRRMGINKAFISAGGVDTARGVTCWNFHEVALKQAAMASAVERHLVVDQSKFGVVKAVRFSQVDDFDSIITEKGQQLRKRR | not soluble
PEPGKKPVSAFSKKPRSVEVAAGSPAVFEAETERAGVKVRWQRGGSDISASNKYGLATEGTRHTLTVREVGPADQGSYAVIAGSSKVKFDLKVIE | soluble
MGSDKIHHHHHHMAKAKTAYSCTECGGQTPKWQGQCPSCMAWNTLVESVVEAAPSQNRYAALAQSSGLQKLADVEAADVPRHPTGIHEFDRVLGGGLVPGGVVLIGGDPGIGKSTLLLQTLCHIGGMRKAVYVSGEESAQQIAMRAKRLGLDAGPVELLAEISLEKILAILQQHKPEVAVIDSIQTLYSEALQSAPGSVAQVRECSAQLTRFAKQTGVTMILVGHVTKEGSLAGPRVLEHIVDTVLYFEGGQNSSFRLVRAFKNRFGAVNELGVFAMTEKGLREVSNPSALFLSHHAEQVAGSCITVTQEGSRPLLVEVQALVDEAHAPNPKRLCVGLEQNRLAMLLAVLHRHAGVACFDQDVFINAVGGVRISEPAVDLAVLLAIVSSLKNKPLNNKLIVFGEVGLAGEVRPVQRGQERLREAAKLGFTHAIVPKANLPKQVIDGLDVKGVERLDQALQLLRNG | not soluble
MSLTFYWYPKCGTCRKAKKWLEEHGKEINEIHIAEQPPSKEELKALYEKSGLDLKKFFNTSGMKYRELNLKEKLYHMSEDEQLELLASDGMLIKRPLTTDGEKVTVGFKEDQFEENWA | not soluble
GSQEEDLPRPSISAEPGTVIPLGSHVTFVCRGPVGVQTFRLERESRSTYNDTEDVSQASPSESEARFRIDSVSEGNAGPYRCIYYKPPKWSEQSDYLELLVKEAAA | soluble
MEQQLNLGHLLTAARLLDIGALDISSLDLGALTSTSSSPGSSSPAMFDLSNESELRSLFCGKLKVDKKQSSCASNASTSSQPYCSSPPARKSSKHSRTAHNELEKTRRANLRGCLETLKMLVPCVSDATRNTTLALLTRARDHIIELQDSNAAQMKKLNDLRDEQDELVAELAQLQADEEVAQATSQACQTLSQSRPESRASSFTSTSSRDSPCYLEYSPSSKPMDSHKPTIIDLYAEGLIPRGPITFPRPLVYPHNVFDLMNLPPTPFDVSQFLPINLQV | not soluble
DIESGLYALIGLFATSKTIDLVQVGLNQSKTVFIISENQEAIRQAILFKIDRGITRLSAKGGYTEDDKQILLCVIAQSEFSRLKEVIKEIDPEAFVVVMSASEVMGEGFTS | not soluble
MSGMILDELSWRGLIAQSTDLDTLAAEAQRGPMTVYAGFDPTAPSLHAGHLVPLLTLRRFQRAGHRPIVLAGGATGMIGDPRDVGERSLNEADTVAEWTERIRGQLERFVDFDDSPMGAIVENNLEWTGSLSAIEFLRDIGKHFSVNVMLARDTIRRRLAGEGISYTEFSYLLLQANDYVELHRRHGCTLQIGGADQWGNIIAGVRLVRQKLGATVHALTVPLVTAADGTKFGKSTGGGSLWLDPQMTSPYAWYQYFVNTADADVIRYLRWFTFLSADELAELEQATAQRPQQRAAQRRLASELTVLVHGEAATAAVEHASRALFGRGELARLDEATLAAALRETTVAELKPGSPDGIVDLLVASGLSASKGAARRTIHEGGVSVNNIRVDNEEWVPQSSDFLHGRWLVLRRGKRSIAGVERIGLEHHHHHH | soluble
MSLTLPSEKPATDVAAQCFLNALIRETTDWKLTEYPPDELIIPLDEQKSLHFRVAYFSPTQHHRFAFPARLVTASGSYPVDFTTLSRLIIDKLRHQLFLPVPLCETFHQRVLESHAHTQQAIDARHDWTALREKALNFGEAEQALLTGHAFHPAPKSHEPFNRREAERYLPDMAPHFPLRWFSVDKTQIAGESLHLNLQQRLTRFAAENAPQLLNELSDNQWLFPLHPWQGEYLLQQGWCQALVAKGLIKDLGEAGTSWLPTTSSRSLYCATSRDMIKFSLSVRLTNSIRTLSVKEVKRGMRLARLAQTDGWQMLQVRFPTFRVMQEDGWAGLLDLNGNIMQESLFALRENLLVDQPKSQTNVLVSLTQAAPDGGDSLLVSAVKRLSDRLGITVQQAAHAWVDAYCQQVLKPLFTAEADYGLVLLAHQQNILVQMLGDLPVGFIYRDCQGSAFMPHATDWLDSIGEAQAENEGHHHHHH | not soluble
MGSDKIHHHHHHASGGVEKINHIVVIYLENRSFDNMFGRFPGADGLEAAKGAPVQVDREGKPYTVLPPILDEKTKQPDPRFPAQIANAPFDIGPHVGQSEKHRDLVHRFYQNMEQINGGRNDKFAAWSDAGGLVMGTYDTSNTRLWALAREFTLADNFFQAAFGGSFLNHFWLICACTPQYEAAPASIRAQLDGDGHLVKDGAVTPDGYPVNTIFSFYPPYPPSATDLAKRLPPQTAPNIGDRLSGKNVSWAWYSGGYAAALEGRNQGNFQYHHQPFVYFASTGEGTKAKARHLKDEAPLFESVAAGRLESVVFYKPVGDENQHPGYADLASGDAKAARLVDAIRASALWKDTAIIITYDENGGFWDHVAPPKGDRWGPGTRIPALIISPYAKRGFVDHTVYDTTSILKLIETRFGLPPLGRRDAVANDLTAAFDFTSERR | not soluble
MRACLKCKYLTNDEICPICHSPTSENWIGLLIVINPEKSEIAKKAGIDIKGKYALSVKE | soluble
HMSNFTGLKVLVMDENGVSRMVTKGLLVHLGCEVTTVSSNEECLRVVSHEHKVVFMDVCMPGVENYQIALRIHEKFTKQRHQRPLLVALSGNTDKSTKEKCMSFGLDGVLLKPVSLDNIRDVLSDLLEPRVLYEGM | soluble
